This note sets out measurements from paper PMC3547798, “Binding of Nucleoid-Associated Protein Fis to DNA Is Regulated by DNA Breathing Dynamics”.

For series [1], the target named is T1, Fis (Escherichia coli DH5alpha, UniProt P0A6R3 1-98). Nature of the series: EMSA; complex detectable at 0.25-0.50 uM Fis; salmon sperm DNA; 20 mM HEPES (pH not stated), 150 mM NaCl, 500 ug/mL BSA, 1 mM DTT, 0.1 mM EDTA, 0.5-1 ug/ul salmon sperm DNA, room temperature 30 min; DNA 100 nM or 500 nM-1 uM (Methods); 6% gel, 0.5x TBE. Particulars: protein: recombinant; tags: N-terminal GST (pGEX-KG); label: 5'-biotin on forward strand; blunt. On the technique in general: A gel shift assay detects complexes by their altered migration in electrophoresis.

Series [2] concerns the target T1, Fis. Nature of the series: EMSA; significant complex at 0.25 uM Fis, stronger than FIS2; salmon sperm DNA; 20 mM HEPES (pH not stated), 150 mM NaCl, 500 ug/mL BSA, 1 mM DTT, 0.1 mM EDTA, 0.5-1 ug/ul salmon sperm DNA, room temperature 30 min; DNA 100 nM or 500 nM-1 uM (Methods); 6% gel, 0.5x TBE. Particulars: protein: recombinant; tags: N-terminal GST (pGEX-KG); label: 5'-biotin on forward strand; blunt.

T1 sequence (P0A6R3 whole entry): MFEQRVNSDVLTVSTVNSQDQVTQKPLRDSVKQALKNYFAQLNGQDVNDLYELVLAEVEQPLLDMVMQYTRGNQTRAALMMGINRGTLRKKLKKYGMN

B1: FIS1 (dsDNA)
DNA 1: AAATTTGTTTGAATTTTGAGCAAATTT
DNA 2: AAATTTGCTCAAAATTCAAACAAATTT
With B1, the binding result with Fis [1] was “binds”.

B2: FIS2m2 (dsDNA)
DNA 1: AAATTTGTTTGGGCGCTGAGCAAATTT
DNA 2: AAATTTGCTCAGCGCCCAAACAAATTT
modifications: O6-methylguanine at nt 12 and 15 of strand 1 (positions -2, +1)
As to B2, the binding result in the series with Fis [2] is “binds”.
